Results on five molecules are retold here after patent US20170327854A1, “METHODS FOR CELLOBIOSAN UTILIZATION” (Alliance for Sustainable Energy, LLC, priority 2015, published 2017).

The test system of one experiment is P. putida strain FJPO3. As to the kind of experiment: Growth and mcl-PHA production of strain FJPO3 on levoglucosan. The experiment is classed as cell-based, Pseudomonas putida. The text has this:
The levoglucosan kinase (lgk) gene from Lipomyces starkeyi was codon optimized using Gene Designer software from DNA 2.0 and synthesized as a gBlock (SEQ ID NO:1). This fragment was cloned into plasmid pMFL76, which is derived from the commercial PCR-Blunt II Topo vector (ThermoFisher), with the addition of two 1-kb genomic regions located in proximity of the rpoS region of the genome from Pseudomonas putida KT2440 to enable homologous recombination mediated genomic integration into strain KT2440. The Ptac-lgk was inserted in between these 1 kb homology regions and transformed into KT2440. A single kanamycin-resistant transformant was isolated and growth in M9 levoglucosan was confirmed, to generate strain FJPO3.
P. putida produces medium chain-length polyhydroxy-alkanoates (mcl-PHAs), which are high-value polymers that can serve as plastics, adhesive precursors, and as precursors to chemical building blocks or hydrocarbons. As mcl-PHAs represent a potential target to generate from pyrolytic sugars, the generation of mcl-PHAs by P. putida using levoglucosan as its sole carbon source as investigated.
Most growths were in a modified formulation of M9 minimal salts. Briefly, 6.78 g Na2PO4 (anhydrous), 3 g KH2PO4, and 0.5 g NaCl were dissolved in 750 mL deionized H2O. The pH was adjusted to 7.4 with 10 N NaOH and brought to 900 mL with H2O. The solution was autoclaved for 15 minutes at 121° C. and allowed to cool. […]
Growth curves were generated using a Bioscreen C automated microbiology growth curve analysis system from Growth Curves USA. […] Spectrophotometric blanks were subtracted from the measured values and each growth curve represents the average of three independent cultures. The maximum specific growth rate (μmax) was calculated as the maximum slope of the log phase of the growth curve over any given 4 hour period during the course of the experiment. […]
One mL of saturated cultures was centrifuged at 5,000×g for 5 minutes. […] Nile Red fluorescence was detected between 560 and 590 nm using band-pass filtering.

Experiment [1] in a line: β-Glucosidase mediated cleavage of cellobiosan (HPLC). Type of experiment: biochemical. The following applies: cellobiosan 2 mg/mL, 2.5 to 20 μg of enzyme (four enzyme loadings), 40° C., 90 minutes, FIG. 5. The method, then:
(§1) Following the β-glucosidase reaction period, the tubes were placed on ice, filtered through a 0.2 μm filter and analyzed via High-Performance Liquid Chromatography (HPLC; Agilent 1100 series system (Agilent USA, Santa Clara, Calif.)) using a Shodex SP0810 carbohydrate column with de-ashing guard cartridges (BioRad Laboratories, Hercules, Calif.) run at 85° C. with ultra-pure water as the isocratic mobile phase at a flow rate of 0.6 mL/min. A refractive index detector was used for compound detection. By-products were identified by co-elution at the same retention time with pure compounds. Standard curves for substrate (cellobiosan) and products (glucose and levoglucosan) were also generated in order to quantify results. Additionally, enzymes were analyzed via HPLC in buffer alone (without cellobiosan) to ensure no carry-over products inherent to the enzyme preparations.
Each reaction was set up in 1.5 mL microcentrifuge tubes using cellobiosan at a concentration of 2 mg/mL in the following buffers: 50 mM sodium maleate, pH 6.5 (T. maritima and Agrobacterium sp.), and 100 mM sodium acetate, pH 5.0 (P. chrysosporium and A. niger). For each reaction, 2.5 to 20 μg of enzyme was loaded and the total reaction volume was 400 μL. An additional enzyme-free reaction was run simultaneously to ensure cellobiosan cleavage was enzyme-dependent. Reactions were incubated at 40° C. using a dry-block for 90 minutes. In a separate reaction evaluating the substrate concentration, 0.125 μM of purified A. niger β-glucosidase was incubated at 40° C. in a 96-well microtiter plate with 0, 0.5, 1, 2, 4, 8, 16 or 32 mM cellobiose or cellobiosan. Reactions were initiated by the addition of enzyme and quenched by boiling in a thin walled PCR tube at 0.5, 1, 5 and 10 minutes.
as §1, with “the” for “the β-glucosidase”, “periods,” for “period,”, “Agilent1100” for “Agilent 1100”, “ml min^−1.” for “mL/min.”, “(without the addition of” for “(without”

In experiment [2] the test system is P. putida strains FJPO3 and KT2440. As to the kind of experiment: Growth of P. putida strains on cellobiose or cellobiosan with addition of abg β-glucosidase. Type of experiment: cell-based, Pseudomonas putida. As for the experimental part: Most growths were in a modified formulation of M9 minimal salts. Briefly, 6.78 g Na2PO4 (anhydrous), 3 g KH2PO4, and 0.5 g NaCl were dissolved in 750 mL deionized H2O. The pH was adjusted to 7.4 with 10 N NaOH and brought to 900 mL with H2O. The solution was autoclaved for 15 minutes at 121° C. and allowed to cool. One hundred μL of 1 M CaCl2 (100 μM final) and 2 mL of 1 M MgSO4-7H2O (2 mM Final), 1 mL of 100 mM FeSO4, (100 μM final) and 10 mL 1 M (NH4)2SO4 (10 mM final) was added. In the case of FIG. 2, 1 mM (NH4)2SO4, was used to induce mcl-PHA production.
Growth curves were generated using a Bioscreen C automated microbiology growth curve analysis system from Growth Curves USA. Overnight cultures were diluted to 0.02 OD in a total volume of 300 μL per well. Incubations were performed at 30° C. with continuous shaking and turbidity measurements (OD420-580) were collected every 15 minutes for the duration of the experiments. Spectrophotometric blanks were subtracted from the measured values and each growth curve represents the average of three independent cultures. The maximum specific growth rate (μmax) was calculated as the maximum slope of the log phase of the growth curve over any given 4 hour period during the course of the experiment. […]

Take `O[C@@H]1[C@@H](O)[C@@H]2OC[C@@H](O2)[C@H]1O` [levoglucosan]: the “growth profile of FJPO3 compared with glucose” value with P. putida strain FJPO3 (M9 medium, 7.5 g/L levoglucosan vs 7.5 g/L glucose, FIG. 2 Panel A) is recorded as “similar”. Moreover, the “concentration at which FJPO3 has the capacity to grow” value in the experiment on P. putida strain FJPO3 (M9 medium, FIG. 2 Panel B) was no more than 60 g/L. In addition, the “mcl-PHA production by FJPO3 (Nile Red fluorescence)” value in the experiment on P. putida strain FJPO3 (N-limited medium [M9 1mM (NH4)2SO4], levoglucosan as sole carbon source, FIG. 2 Panel C) is recorded as “produces mcl-PHAs”. Take “bgl1A: P. chrysosporium β-glucosidase, GH3, GenBank AAC26489, SEQ ID NO: 4”: in experiment [1], the “cleavage of cellobiosan to generate glucose and levoglucosan” value (“cleavage of cellobiosan” for short) is on record as “able to cleave cellobiosan”.

B1: bglA: T. maritima β-glucosidase, GH1, GenBank CAA52276.1, SEQ ID NO: 5 (protein, listed as Thermotoga maritima)
chain: MNVKKFPEGFLWGVATASYQIEGSPLADGAGMSIWHTFSHTPGNVKNGDTGDVACDHYNRWKEDIEIIEKLGVKAYRFSISWPRILPEGTGRVNQKGLDFYNRIIDTLLEKGITPFVTIYHWDLPFALQLKGGWANREIADWFAEYSRVLFENFGDRVKNWITLNEPWVVAIVGHLYGVHAPGMRDIYVAFRAVHNLLRAHARAVKVFRETVKDGKIGIVFNNGYFEPASEKEEDIRAVRFMHQFNNYPLFLNPIYRGDYPELVLEFAREYLPENYKDDMSEIQEKIDFVGLNYYSGHLVKFDPDAPAKVSFVERDLPKTAMGWEIVPEGIYWILKKVKEEYNPPEVYITENGAAFDDVVSEDGRVHDQNRIDYLKAHIGQAWKAIQEGVPLKGYFVWSLLDNFEWAEGYSKRFGIVYVDYSTQKRIVKDSGYWYSNVVKNNGLED
Consider B1, for which, in experiment [1], the “cleavage of cellobiosan” value is on record as “able to cleave cellobiosan”.

B2: bgl1: A. niger β-glucosidase, GH3, GenBank AJ132386, SEQ ID NO: 3 (protein)
chain: MRFTLIEAVALTAVSLASADELAYSPPYYPSPWANGQGDWAQAYQRAVDIVSQMTLDEKVNLTTGTGWELELCVGQTGGVPRLGVPGMCLQDSPLGVRDSDYNSAFPAGMNVAATWDKNLAYLRGKAMGQEFSDKGADIQLGPAAGPLGRSPDGGRNWEGFSPDPALSGVLFAETIKGIQDAGVVATAKHYIAYEQEHFRQAPEAQGFGFNISESGSANLDDKTMHELYLWPFADAIRAGAGAVMCSYNQINNSYGCQNSYTLNKLLKAELGFQGFVMSDWAAHHAGVSGALAGLDMSMPGDVDYDSGTSYWGTNLTISVLNGTVPQWRVDDMAVRIMAAYYKVGRDRLWTPPNFSSWTRDEYGYKYYYVSEGPYEKVNQYVNVQRNHSELIRRIGADSTVLLKNDGALPLTGKERLVALIGEDAGSNPYGANGCSDRGCDNGTLAMGWGSGTANFPYLVTPEQAISNEVLKHKNGVFTATDNWAIDQIEALAKTASVSLVFVNADSGEGYINVDGNLGDRRNLTLWRNGDNVIKAAASNCNNTIVVIHSVGPVLVNEWYDNPNVTAILWGGLPGQESGNSLADVLYGRVNPGAKSPFTWGKTREAYQDYLVTEPNNGNGAPQEDFVEGVFIDYRGFDKRNETPIYEFGYGLSYTTFNYSNLEVQVLSAPAYEPASGETEAAPTFGEVGNASDYLYPSGLQRITKFIYPWLNGTDLEASSGDASYGQDSSDYLPEGATDGSAQPILPAGGGPGGNPRLYDELIRVSVTIKNTGKVAGDEVPQLYVSLGGPNEPKIVLRQFERITLQPSEETKWSTTLTRRDLANWNVEKQDWEITSYPKMVFVGSSSRKLPLRASLPTVH
modifications: Aspergillus niger
Regarding B2, in experiment [1], the “cleavage of cellobiosan” value was “able to cleave cellobiosan”.

B3: abg: Agrobacterium sp. β-glucosidase, GH1, GenBank AAA22085.1, SEQ ID NO: 6 (protein, listed as Agrobacterium sp.)
chain: MTDPNTLAARFPGDFLFGVATASFQIEGSTKADGRKPSIWDAFCNMPGHVFGRHNGDIACDHYNRWEEDLDLIKEMGVEAYRFSLAWPRIIPDGFGPINEKGLDFYDRLVDGCKARGIKTYATLYHWDLPLTLMGDGGWASRSTAHAFQRYAKTVMARLGDRLDAVATFNEPWCAVWLSHLYGVHAPGERNMEAALAAMHHINLAHGFGVEASRHVAPKVPVGLVLNAHSAIPASDGEADLKAAERAFQFHNGAFFDPVFKGEYPAEMMEALGDRMPVVEAEDLGIISQKLDWWGLNYYTPMRVADDATPGVEFPATMPAPAVSDVKTDIGWEVYAPALHTLVETLYERYDLPECYITENGACYNMGVENGQVNDQPRLDYYAEHLGIVADLIRDGYPMRGYFAWSLMDNFEWAEGYRMRFGLVHVDYQTQVRTVKNSGKWYSALASGFPKGNHGVAKG
Take B3: in experiment [2] (cellobiosan, twenty micrograms of enzyme, 30° C., FIG. 6), the “growth of FJPO3 and KT2440 in M9 medium containing cellobiosan plus abg” value was “both FJPO3 and KT2440 are capable of utilizing the glucose component of cellobiosan”. Further, in experiment [2] (cellobiose, FIG. 6 Panel A), the “growth profiles of KT2440 and FJPO3 in M9 medium containing cellobiose with addition of abg” value is listed as “virtually indistinguishable”. Also, the “cleavage of cellobiosan” value in experiment [1] is reported as “able to cleave cellobiosan”.
